Source: patent publication US20080152587A1 (Amgen, published 2008)

T1: human Ly6e with a myc tag, expressed in HEK293T cells (human, UniProt Q16553 21-101)
T1 construct: whole, on cells; not shown: myc tag fused on the molecule
T1 sequence (looked up): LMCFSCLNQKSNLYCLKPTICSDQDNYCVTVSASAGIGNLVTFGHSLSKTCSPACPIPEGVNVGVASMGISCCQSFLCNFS

T2: mouse uPAR on the surface of NCTC L929 cells (mouse, UniProt P35456 24-298)
T2 construct: whole, on cells; also called cell surface mouse uPAR
T2 sequence (looked up): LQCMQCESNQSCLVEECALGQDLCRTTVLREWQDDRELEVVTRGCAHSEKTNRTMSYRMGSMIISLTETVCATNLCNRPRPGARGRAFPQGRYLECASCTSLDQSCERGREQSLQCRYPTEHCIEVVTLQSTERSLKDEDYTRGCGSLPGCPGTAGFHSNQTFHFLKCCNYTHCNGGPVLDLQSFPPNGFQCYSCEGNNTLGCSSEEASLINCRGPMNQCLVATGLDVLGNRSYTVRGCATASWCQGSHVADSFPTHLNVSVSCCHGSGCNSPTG

T3: murine uPAR (form not stated) (mouse, UniProt P35456 24-297, limits assumed)
T3 construct: also called mouse uPAR
T3 sequence (looked up): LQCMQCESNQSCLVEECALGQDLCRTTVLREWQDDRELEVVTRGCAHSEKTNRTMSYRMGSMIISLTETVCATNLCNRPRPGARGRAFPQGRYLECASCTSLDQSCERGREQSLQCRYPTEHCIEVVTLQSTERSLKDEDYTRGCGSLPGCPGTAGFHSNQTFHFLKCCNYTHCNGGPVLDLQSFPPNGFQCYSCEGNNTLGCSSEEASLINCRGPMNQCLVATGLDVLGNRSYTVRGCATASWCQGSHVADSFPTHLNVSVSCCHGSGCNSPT

T4: lane 1: murine DI/DIII-human DII uPAR chimera (His-tagged)
T4 construct: The sheet prints only the lane number; also called Murine D1/Human D2/Murine D3; murine D1/human D2/MuD3
T4 uPAR ECD chimera: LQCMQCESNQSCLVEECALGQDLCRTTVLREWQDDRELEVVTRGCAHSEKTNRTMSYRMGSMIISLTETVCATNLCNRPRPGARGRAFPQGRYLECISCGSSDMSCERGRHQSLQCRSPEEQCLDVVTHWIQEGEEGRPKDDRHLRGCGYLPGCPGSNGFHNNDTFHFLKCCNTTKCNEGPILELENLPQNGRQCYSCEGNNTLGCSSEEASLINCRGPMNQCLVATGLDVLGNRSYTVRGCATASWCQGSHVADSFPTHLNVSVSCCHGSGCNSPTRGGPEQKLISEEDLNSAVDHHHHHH

B1: fully human monoclonal antibody 2.19.2 (ATCC Accession Number PTA-7474) (antibody, V domains shown)
VH: QVQLVESGGGVVQPGRSLRLSCAASGFTFSSYGMHWVRQAPGKGLEWVAVIWYDGSNKYYADSVKGRFTISRDNSKNTLYLQMNSLRAEDTAVYYCARDQHIVVVTAILDYWGQGTLVTVSS
VL: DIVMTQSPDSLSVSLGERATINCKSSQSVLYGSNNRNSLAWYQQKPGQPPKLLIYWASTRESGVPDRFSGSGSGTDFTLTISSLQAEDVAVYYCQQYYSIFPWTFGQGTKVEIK
B2: fully human monoclonal antibody 4.18.1 (ATCC Accession Number PTA-7476) (antibody, V domains shown)
VH: EVQLVESGGGLIQPGGSLRLSCAASGFTVRNNYMNWVRQAPGKGLEWVSVIYTGGSTYYADSVKGRFTISRDNSRNTLYLQMNSLRAEDTAVYYCAREGAVAGFDYWGQGTLVTVSL
VL: EIVMTQFPATLSMSPGERATLSCRASQSVSSSLAWYQQTPGQAPRLLIYGASTRSTGFPARFSGIGSGTEFTLTISSLQSEDFAVYYCQQYGNWPLTFGQGTRLEIK
B3: fully human monoclonal antibody 2.6.1 (ATCC Accession Number PTA-7475) (antibody, V domains shown)
VH: EVQLVESGGGLIQPGGSLRLSCAASGFTVITNYMNWVRQAPGKGLEWVSIIYTGGSTSYADSVKGRFTVSRDNSKNTLYLHMNSLRVEDTAVYYCAREIAVAGYYGMDVWGQGTTVTVS
VL: DIQMTQSPSSLSASVGDRVTITCRASQGIRNDLGWYQQKPGKAPKRLIYAASSLQSGVPSRFSGSGSGTEFTLTISSLQPEDFATYYCLQHNSYPLTFGGGTRVEIK
notes: also called mAb 2.6.1

molecular target: T1, human Ly6e with a myc tag, expressed in …; experiment: FACS, HEK293T cells expressing Ly6e, supernatant 1:2
Protocol: The reactivity of the antibodies to the HEK293T transfected to express Ly6e was determined by FACS analysis, using 1:2 hybridoma supernatants, and probed with goat anti-human γ chain conjugated with Cy5 (2.5 mg/ml, Jackson Immune Research). Binding of an anti-myc antibody (10 μg/ml, Invitrogen) to the transfectants served as a positive control, and binding of this antibody to the (Ly6e negative) parental cells served as the negative control.

binding result | Binder
no binding (tested: GeoMean ratio 1.95) | B1
no binding (tested: GeoMean ratio 1.95) | B2
no binding (tested: GeoMean ratio 1.95) | B3

molecular target: T5, human urokinase-type plasminogen activator receptor (uPAR, CD87), cell-bound (human, UniProt Q03405 23-305); experiment: cell-based or functional assay

inhibition of adhesion of U937 cells to vitronectin at 2 µg/ml | inhibition of plasminogen activation on U937 cells | Binder
90% | > 90% | B1
~90% | > 90% | B2
90% | > 90% | B3

molecular target: T2, mouse uPAR on the surface of NCTC L929 …; experiment: FACS, NCTC L929 mouse cells, mAb 6.25 µg/ml
Protocol: (§1) To make the mouse cross-reactivity results conclusive, direct binding of the mAbs to cell-bound mouse uPAR was measured using FACS analysis. The mouse cell line derived from the connective tissue, NCTC L929, was employed for FACS analysis. The harvested cells were resuspended at 50,000 cells/well using FACS buffer into a V-bottom plate which was put on ice. […] After washing, Cy5-labeled goat anti-human IgG Fc at 5 μg/ml and 7AAD at 5 μg/ml was added. The mixtures were incubated for 15 min on ice, washed and resuspended in cold FACS buffer for FACS analysis.

X Geo Mean | Binder
9.55 | B1
8.18 | B2
12.9 | B3

molecular target: T6, soluble recombinant human uPAR/His6 (R&D Systems, Cat. # 807-UK-100) (human, UniProt Q03405 23-303); experiment: low resolution Biacore, mAb captured by goat anti-human, hu-uPAR 312 nM;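 also: surface plasmon resonance on a CM5 chip with goat anti-human antibody surface made by amine coupling, each mAb from supernatant captured per flow cell, kinetics fitted including mass transport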
T6 construct: range 1-303; Bought protein; also called soluble uPAR; hu-uPAR
Protocol: (§2) A high-density goat anti-human antibody surface over a CM5 Biacore™ chip was prepared using routine amine coupling. […] Each mAb was captured on a separate flow cell using a 30-second contact time at 10 μL/min followed by a 5-minute wash at a 100 μL/min flow rate for stabilization of the mAb baseline. […] All antigen samples were prepared in the running buffer.
A mass transport coefficient was used in fitting the data.

Kd | koff | kon | Binder
0.31 nM | 4.3e-05 s⁻¹ | 140000 M⁻¹ s⁻¹ | B1
1.5 nM | 0.00016 s⁻¹ | 110000 M⁻¹ s⁻¹ | B2
0.57 nM | 4.6e-05 s⁻¹ | 81000 M⁻¹ s⁻¹ | B3

molecular target: T2, mouse uPAR on the surface of NCTC L929 …; experiment: FACS, NCTC L929 mouse cells
Protocol: as §1

binding result | Binder
no binding (tested: 6.25 µg/ml) | B1
no binding (tested: 6.25 µg/ml) | B2
no binding (tested: 6.25 µg/ml) | B3

molecular target: T5, human urokinase-type plasminogen …; experiment: FACS competition, FITC-tc-uPA on L929 cells expressing human uPAR, supernatant 1:2
Target sequence in this assay (Q03405 23-305): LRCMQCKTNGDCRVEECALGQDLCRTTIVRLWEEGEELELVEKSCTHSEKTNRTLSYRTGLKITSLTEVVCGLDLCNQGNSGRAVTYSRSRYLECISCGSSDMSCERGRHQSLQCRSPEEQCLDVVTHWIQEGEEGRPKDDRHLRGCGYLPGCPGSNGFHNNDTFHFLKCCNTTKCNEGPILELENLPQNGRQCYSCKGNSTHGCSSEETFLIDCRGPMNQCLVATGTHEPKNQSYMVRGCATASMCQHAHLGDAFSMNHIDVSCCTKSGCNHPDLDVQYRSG
Description: (§3) Briefly, murine fibroblast L929 cells (ATCC) were transfected to express human uPAR.

uPA/uPAR binding Inhibition % | Binder
85% | B1
75% | B2
80% | B3

molecular target: T5, human urokinase-type plasminogen …; experiment: cell-based or functional assay; remark: another data set of the same source

Plasminogen activation inhibition (IC50, ug/ml) | Binder
0.053 µg/mL | B1
0.067 µg/mL | B2
0.073 µg/mL | B3

molecular target: T5, human urokinase-type plasminogen …; experiment: FACS competition with FITC-tc-uPA, line material
Target sequence in this assay (Q03405 23-305): as above
Description: as §3

Human uPAR/uPA binding inhibition (%, line material) | Binder
85% | B1
75% | B2
80% | B3

molecular target: T5, human urokinase-type plasminogen …; experiment: FACS, U937 cells, mAb 5 µg/ml on ice, alexa647 goat anti-human F(ab), not stripped
Protocol: A cell suspension containing 100,000 cells was pipetted into each well of a V-bottom plates in duplicate. Two V-bottom plates were prepared, one to be kept at 37° C. during internalization with antibody complex, and the other to be incubated at 4° C. Each of the eight uPAR mAbs was incubated with U937 cells at 5 μg/ml on ice for 15 min. Incubation on ice was necessary to prevent internalization of the primary mAbs. The cells were then washed with cold FACS buffer. Cells were subsequently incubated on ice in 100 μl of 5 μg/ml alexa647-labelled goat anti-humanF(ab) (Invitrogen catalogue number A21249) in cold FACS buffer for 15 min. This allowed the goat FAB bind to the bound uPAR mAbs without permitting any internalization. After a 15 minute incubation on ice, one plate was kept on ice, while the other plate was incubated at 37° C. for 1 hour.
Following the 1 hr incubation with the mAb-FAB complex, the cells were washed twice with cold 5% FACS buffer, and 200 μl of Tris(2-carboxyethyl)phosphine HCl (TCEP) was added to each well as a stripping agent. The plates were both incubated with TCEP on ice for 1 hour, followed by washing and resuspending with FACS buffer. 4 μl of 7-Amino-Actinomycin D (7AAD) was added to each well, followed by 10 min incubation on ice before FACS analysis was conducted.

geo mean cold - TCEP | Binder
42.7 | B1
41.2 | B2
44.3 | B3

molecular target: T5, human urokinase-type plasminogen …; experiment: FACS, B300.19 cells expressing human uPAR, anti-human gamma Cy5
Target sequence in this assay (Q03405 23-305): as above

gCy5 Geo Mean Pos Cells | Binder
445 | B1
251 | B2
455 | B3

molecular target: T3, murine uPAR (form not stated); experiment: summary column Murine X-reactivity

binding result | Binder
no binding | B1
no binding | B2
no binding | B3

Molecular target: T4, lane 1: murine DI/DIII-human DII uPAR …
Experiment: Western blot of HEK293T culture supernatants with His-tagged uPAR proteins, probed with the antibody
Description: Human-murine uPAR chimeras (His-tagged) were expressed in BEK293T cells and uPAR expression was detected using the anti-human uPAR mAbs as indicated.
Chimeric human-murine uPAR comprising murine D1/humanD2D3; murine D1/human D2/MuD3; and human D1D2/murineD3uPAR each with a C-terminal His tag were expressed as secreted proteins in HEK293T cells.

binding result | Binder
no binding | B1
no binding | B2
no binding | B3

molecular target: T6, soluble recombinant human uPAR/His6 …; experiment: high resolution Biacore, mAb amine coupled, uPAR injected
Protocol: All mAbs were diluted into 10 mM sodium acetate, pH 4.0 for immobilization. […] All experiments were run at 23° C. with a flow rate of 100 μL/min. Serially diluted (2-fold) uPAR samples were randomly injected in triplicate for 90 seconds with several buffer injections interspersed for double referencing. A Biacore™ 2000 biosensor instrument was used for all high resolution experiments. Data were fit globally to a 1:1 interaction model with a term for mass transport included.

Kd | Binder
0.175 nM | B1
0.446 nM | B2
0.249 nM | B3

molecular target: T6, soluble recombinant human uPAR/His6 …; experiment: low resolution Biacore
Protocol: as §2

Kd | Binder
0.31 nM | B1
1.5 nM | B2
0.57 nM | B3

molecular target: T6, soluble recombinant human uPAR/His6 …; experiment: limited antigen ELISA, uPAR coat 80 ng/mL, sample 1:25
Target sequence in this assay (Q03405 other isoform, or with tags, fused parts or gaps limits assumed, form in doubt): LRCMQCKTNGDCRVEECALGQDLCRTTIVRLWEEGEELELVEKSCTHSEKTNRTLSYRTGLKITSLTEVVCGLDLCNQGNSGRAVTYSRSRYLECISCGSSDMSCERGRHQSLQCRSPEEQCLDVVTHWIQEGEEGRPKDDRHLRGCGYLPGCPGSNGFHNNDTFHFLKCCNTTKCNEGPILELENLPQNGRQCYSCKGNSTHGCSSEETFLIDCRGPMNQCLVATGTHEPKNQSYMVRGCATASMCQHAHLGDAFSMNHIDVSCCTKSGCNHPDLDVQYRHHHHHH
Protocol: ELISA plates were coated with a lower amount ofuPAR in comparison with the High Antigen Quantitation assay described below (320, 160, 80, 40 and 20 ng/mL). Samples containing one concentration of antibody (Ab) (1:25 dilution) were incubated overnight to allow Ab binding to approach equilibrium.

LA at 80 ng/ml | Binder
2.65 | B1
2.06 | B2
3.58 | B3
